B1: Varicella-Zoster virus ORF9 (VZV-ORF9) (natural protein)
chain: MASSDGDRLCRSNAVRRKTTPSYSGQYRTARRSVVVGPPDDSDDSLGYITTVGADSPSPVYADLYFEHKNTTPRVHQPNDSSGSEDDFEDIDEVVAAFREARLRHELVEDAVYENPLSVEKPSRSFTKNAAVKPKLEDSPKRAPPGAGAIASGRPISFSTAPKTATSSWCGPTPSYNKRVFCEAVRRVAAMQAQKAAEAAWNSNPPRNNAELDRLLTGAVIRITVHEGLNLIQAANEADLGEGASVSKRGHNRKTGDLQGGMGNEPMYAQVRKPKSRTDTQTTGRITNRSRARSASRTDTRK
modifications: AF488 NHS ester label
B2: Herpes simplex virus type 1 VP22 (HSV1-VP22) (natural protein)
chain: MTSRRSVKSGPREVPRDEYEDLYYTPSSGMASPDSPPDTSRRGALQTRSRQRGEVRFVQYDESDYALYGGSSSEDDEHPEVPRTRRPVSGAVLSGPGPARAPPPPAGSGGAGRTPTTAPRAPRTQRVATKAPAAPAAETTRGRKSAQPESAALPDAPASTAPTRSKTPAQGLARKLHFSTAPPNPDAPWTPRVAGFNKRVFCAAVGRLAAMHARMAAVQLWDMSRPRTDEDLNELLGITTIRVTVCEGKNLLQRANELVNPDVVQDVDAATATRGRSAASRPTERPRAPARSASRPRRPVE
modifications: AF488 NHS ester label

Columns and labels:
[1] = molecular target: cGAS-pMag (pMag fused to the C-terminus of full-length cGAS) (UniProt Q8N884); assay: dcFCCS
[2] = molecular target: Cyclic GMP-AMP synthase (cGAS), full-length (amino acids 1-522) (UniProt Q8N884 1-522); assay: dcFCCS

Row | Molecule | fold increase of the proportion forming heterodimer under blue light [1] | Kd [2]
1 | nMagHigh1-ORF9 (nMagHigh1 fused to the N-terminus of VZV-ORF9) | 5 fold | 
2 | nMagHigh1-ORF52 (nMagHigh1 fused to the N-terminus of KSHV-ORF52) | 5 fold | 
3 | nMagHigh1-VP22 (nMagHigh1 fused to the N-terminus of HSV1-VP22) | 5 fold | 
4 | B1 |  | ~2000 nM
5 | B2 |  | ~2000 nM

From article PMC11965557 (Communications Biology, 2025)
